According to paper PMC6442418, “Pycnoporus cinnabarinus glyoxal oxidases display differential catalytic efficiencies on 5-hydroxymethylfurfural and its oxidized derivatives” (Fungal Biology and Biotechnology, 2019):

B1: PciGLOX3 (Trametes cinnabarina) (protein)
chain: APSAPGWSFDLKKETSGIVALEAIVVSPTLVVFFDRASDDPLQINNHSAWGALWNLESSTVRPLDVLTNSFCASGALLSNGTMASVGGDPDGFVGNPAIRPGNQAIRLFEPCDSPTGDGCTLFEDPATLHLLEKRWYPSSARIFDGSLIIVGGMHEATPFYNTDPALSFEFFPRKEDTPRPSEFLNRSLPANLFPRVFALPDGKVFMVANNQSIIYDIEAKTERILPDVPNNVRVTNPMDGSAILLPLSPPDFVPEVLVCGGSQTDTIDPSLLTSQTPASSQCSRIRLDEEGIAKGWEVEHMLEGRIMPELVHLPNGQVLIANGGRTGFAAIASVSEPVGNSNADHPVLVPSLYTPDAPLGRRISNVGLPSSGIPRLYHSSVTLTPQGNFLIAGSNPNNRTTVGPGIKFPSEFRVQTLDPPFMSVERPKILNMPKKLGFNKSFTVPISVPSSLARPGAKVQISLMDLGFSSHAFHSSARLVFMNGKISQDSKSLTFTTPPNGRVYPPGPATVFLTIDDVTSEGAWVMMGSGNSPPTLE
notes: secreted copper radical oxidase (AA5), heterologously produced in Aspergillus niger, purified
B2: PciGLOX2 (Trametes cinnabarina) (protein)
chain: APSTPTGWQFNLKAERSGIVALESIVVSPTLVVFFDRATNDPLQINNHSAWGALWNLETSTVRALDVLTNSFCASGALLSNGTMASIGGDPNGFPGNPAIHPGTQAIRLFEPCDSPTGEGCTLFEDPVTLHLLEKRWYPSSVRIFDGSLLIVGGMHEETPFYNTDPALSFEFFPPKESTPRPSEFLNRSLPANLFPRVFALPDGKVFMVANNQSIIYDIEANTERILPDIPNNVRVTNPIDGSAILLPLSPPDFVPEVLVCGGTQTDTIDPSLLTSQTPASSQCSRIRLDEEGIARGWEVEHMLEGRMMPELVHLPNGQVLIANGARTGFAAIASVSDPVGGSNADHAVLVPSLYTPDAPLGTRISNVGLPSSGIARVYHSSITLTPQGNFLIAGSNPNNNSSVTAGVKFPSEFRVQTLDPPFMFVERPKILSMPKKLAFGKSFTVPIAVPSTLAHPGAKVQVSLMDLGFSSHAFHSSARLVFMNAKISQDGKSLTFTTPPNGRVYPPGPATIFLTIDDVTSEGAWVMMGSGNPPPTLE
notes: as for B1
B3: PciGLOX1 (Trametes cinnabarina) (protein)
chain: APSAPGWRFDLKAERSGIVALESIVVSPTLVLWFDRASDDPLQINNHSAWGALWNLETSTVRPLNVLTNSFCASGALLSNGSMASVGGDPRGFPGNPAINPGNQAIRIFEPCASPTGDGCTVFEDPQTLHLLEDRWYPSSIRIFDGSLLIVGGTHVNENFYNLHPANSFEFFPPKESTPRPSAFLERSLPANLFPRIFALPDGKVFMVANNQSIIYDIEANTERILPDIPNNVRVTNPIDGSAILLPLTPPDYIPEVLVCGGTSTDPLDPSLLSSQTPATTQCSRIRLDEEGIAKGWQVEHMLEPRTMPELVHIPNGQILIANGARTGFAAIKQVQDPIGNSNSDHAVLVPSIYTPDAPLGQRISNAGMPSSGIARVYHSSITLTPQGNFLIAGSNPNGNTTVGPGVKFPSEFRVQTLDPPFMFVERPKILNTPEKLAFNKTFTVPISVPSTLASPGAKVQVSLMDLGFSSHAFHSSARLVFMDATISRDRRSLTFTTPPNGRVFPPGPATVFLTIDGVTSEGAWVMMGSGNSPPTLE
notes: as for B1

Assays:
Experiment in all cases: purified protein
Format in all cases: biochemical, Trametes cinnabarina
Settings in all cases: 50 mM sodium tartrate pH 6, 30 °C, HRP 8 U, 0.1 mM ABTS, 5 µM H2O2
[1] = substrate: OCC(O)CO
[2] = substrate: CC(=O)C=O
[3] = substrate: O=CC(=O)O
[4] = substrate: O=CC=O
[5] = substrate: O=Cc1ccc(CO)o1
[6] = substrate: O=Cc1ccc(C=O)o1

Protein	Km [1] [µM]	Km [2] [µM]	Km [3] [µM]	Km [4] [µM]	Km [5] [µM]	kcat [5] [s⁻¹]	kcat/Km [5] [M⁻¹ s⁻¹]	Km [6] [µM]	kcat [6] [s⁻¹]	kcat/Km [6] [M⁻¹ s⁻¹]
B1	5500	100	500	700	6350 ± 1320	0.75 ± 0.07	118.35 ± 0.01	180 ± 50	1.28 ± 0.09	7267.7 ± 0.01
B2	–	–	–	–	5870 ± 2040	0.56 ± 0.09	96.04 ± 0.01	210 ± 40	4.8 ± 0.24	23404 ± 0.01
B3	–	–	–	–	15660 ± 2350	1.59 ± 0.12	101.66 ± 0.01	4380 ± 100	0.54 ± 0.24	124.39 ± 0.01
